Test results published in the supplement of paper PMC10567573.

B1: HSP90AB1 (parent)
chain: EADKNDKAVKDLVVLLFETALLSS
B2: DYRK1B (parent)
chain: RFQDLVLRMLEYEPAARISPLGAL

Variants of: B1
Test: protein stability index of a GFP-peptide fusion (GPS, HEK-293T) (PSI 1-6); higher = more stable
Settings: c terminus: a fixed tail appended
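Note: lentivirally expressed fusions sorted by FACS into six bins by GFP to DsRed ratio, PSI derived from sequencing read proportions per bin multiplied by bin number.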

Protein stability index of substitutions, site by site:
T19: N 2.15; C 2.54; D 2.32; P 1.83; A 1.42; L 1.98; F 2.57; E 2.71
V9: F 2.17; M 1.8; A 1.97; P 2.81; C 1.81; Y 2.16; H 3; Q 1.7; S 2.1; R 1.95; K 2.15; W 1.7; D 2.44; I 1.84; E 3.07; T 2.49; L 2.42
D11: R 3.27; S 1.99; G 2.68; Y 2.79; F 2.86; K 2.15; E 1.98; C 3.23; M 1.65; V 3.05; H 2.61; T 3.74; N 2.67; I 3.6; P 1.51; W 3.06; Q 1.97; A 2.54
L15: V 1.5; W 3.99; I 1.95; Q 3.06; S 2.77; Y 2.04; G 3.23; P 4.06; N 3.62; A 2.52; D 3.61; K 2.48; M 1.92; R 2.64; E 3.5; H 2.69; C 2.15; T 2.71
L12: M 2.2; G 3.5; F 1.72; Q 3.71; H 3.27; R 3.44; C 2.35; E 3.99; N 3.89; D 4.21; I 2.46; S 3.49; A 2.52; Y 2.16; V 2.1; P 3.2; K 3.6; T 2.73
E18: Q 1.77; W 2.79; A 2.2; T 2.01; L 2.61; D 1.33; S 2.16; N 1.7; M 3; R 2.21; C 1.82; K 2.42; F 3.16; H 2.07; V 4.33; P 2.73; G 4.31; I 3.81
K7: M 2.47; P 2.24; L 2.47; W 3.3; H 2; T 1.84; G 2.17; F 2.32; D 2; Y 2.79; Q 1.67; S 1.92; I 2.77; N 1.95; R 2.02
L22: N 2.68; Q 2.29; A 2.85; Y 1.5; H 2.18; F 1.8; V 2.17; G 2.77; T 2.29; E 2.95; D 3.01; R 2.09; W 1.64; S 2.7; M 1.86
S23: V 2.41; L 3.33; K 1.91; A 2.21; T 2.15; W 2.27; G 1.95; I 3.41; M 2.65; C 2.22; R 2.54; P 1.96; Y 1.63; Q 1.64; F 1.68; N 1.96; H 2.26; D 2.26

Variants of: B2
Test: as above
Settings: c terminus: a fixed tail appended

Protein stability index, by site and new letter:
F2: D 2.38; M 3.25; G 2.18; C 2.36; N 2.14; Q 3.35; E 3.27; P 1.76; K 2.15; H 2.53
R1: K 2.19; M 3.36; D 1.54; T 2.57; W 3; F 3.52; P 3.11; N 2.94; H 2.31; S 4.75; G 1.58; Y 2.47
